Results taken from the supplement of paper PMC10219994.
± gives the standard deviation of the averaged measurements.

B1: library; a variant is named by its letters at N, in order (parent)
chain: GAGACCGCAACTGAAAAGTTGTGGNNNNNATAGTGAGTCGCTGCCTGCAAAGACACAACT

Variants of: B1
Experiment: ligation selection enrichment (abundance after / before one-round selection) (fold); higher = more template-directed ligation activity
Conditions: with T7Psub CACGGAUGCUAAUACGACUCACUAUA; MgCl2 25 mM; 42 °C; 4 h; pH 8.5
Description: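 Lib-N5 ligase ribozyme library: five randomized core nucleotides (including the GGA motif of N8-1) within the fixed N8-1 ribozyme flanks, transcribed by T7 RNA polymerase with a 5'-triphosphate. The library (0.75 uM) was reacted with substrate T7Psub (6 uM) in 50 mM EPPS pH 8.5 with 25 mM MgCl2 at 42 C for 4 h. Ligated products were PAGE-purified, reverse transcribed and MiSeq sequenced; enrichment = abundance after selection / abundance before selection, with two independent replicates. The full transcript is built from the printed template flanks.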

Variant	ligation selection enrichment
GAGACCGCAACTGAAAAGTTGTGGTAACTATAGTGAGTCGCTGCCTGCAAAGACACAACT [TAACT]	0.925 ± 0.31
GAGACCGCAACTGAAAAGTTGTGGTAACAATAGTGAGTCGCTGCCTGCAAAGACACAACT [TAACA]	0.186 ± 0.043
GAGACCGCAACTGAAAAGTTGTGGTAACGATAGTGAGTCGCTGCCTGCAAAGACACAACT [TAACG]	0.8672 ± 0.0053
GAGACCGCAACTGAAAAGTTGTGGTAACCATAGTGAGTCGCTGCCTGCAAAGACACAACT [TAACC]	0.173 ± 0.011
GAGACCGCAACTGAAAAGTTGTGGAAACAATAGTGAGTCGCTGCCTGCAAAGACACAACT [AAACA]	0.177 ± 0.013
GAGACCGCAACTGAAAAGTTGTGGAAACGATAGTGAGTCGCTGCCTGCAAAGACACAACT [AAACG]	0.742 ± 0.064
GAGACCGCAACTGAAAAGTTGTGGAAACCATAGTGAGTCGCTGCCTGCAAAGACACAACT [AAACC]	0.196 ± 0.0049
GAGACCGCAACTGAAAAGTTGTGGAAACTATAGTGAGTCGCTGCCTGCAAAGACACAACT [AAACT]	1.21 ± 0.29
GAGACCGCAACTGAAAAGTTGTGGCAAGCATAGTGAGTCGCTGCCTGCAAAGACACAACT [CAAGC]	0.137 ± 0.042
GAGACCGCAACTGAAAAGTTGTGGCAAGAATAGTGAGTCGCTGCCTGCAAAGACACAACT [CAAGA]	0.182 ± 0.036
GAGACCGCAACTGAAAAGTTGTGGCAAGGATAGTGAGTCGCTGCCTGCAAAGACACAACT [CAAGG]	0.2 ± 0.024
GAGACCGCAACTGAAAAGTTGTGGCAAATATAGTGAGTCGCTGCCTGCAAAGACACAACT [CAAAT]	0.595 ± 0.18
GAGACCGCAACTGAAAAGTTGTGGCAAACATAGTGAGTCGCTGCCTGCAAAGACACAACT [CAAAC]	0.135 ± 0.028
GAGACCGCAACTGAAAAGTTGTGGCAAAGATAGTGAGTCGCTGCCTGCAAAGACACAACT [CAAAG]	0.162 ± 0.03
GAGACCGCAACTGAAAAGTTGTGGCAAAAATAGTGAGTCGCTGCCTGCAAAGACACAACT [CAAAA]	0.131 ± 0.011
GAGACCGCAACTGAAAAGTTGTGGGAAGCATAGTGAGTCGCTGCCTGCAAAGACACAACT [GAAGC]	0.167 ± 0.033
GAGACCGCAACTGAAAAGTTGTGGGAAGGATAGTGAGTCGCTGCCTGCAAAGACACAACT [GAAGG]	0.571 ± 0.21
GAGACCGCAACTGAAAAGTTGTGGGAAGAATAGTGAGTCGCTGCCTGCAAAGACACAACT [GAAGA]	0.306 ± 0.024
GAGACCGCAACTGAAAAGTTGTGGAAAACATAGTGAGTCGCTGCCTGCAAAGACACAACT [AAAAC]	0.17 ± 0.018
GAGACCGCAACTGAAAAGTTGTGGAAAAGATAGTGAGTCGCTGCCTGCAAAGACACAACT [AAAAG]	0.226 ± 0.025
GAGACCGCAACTGAAAAGTTGTGGAAAAAATAGTGAGTCGCTGCCTGCAAAGACACAACT [AAAAA]	0.191 ± 0.076
GAGACCGCAACTGAAAAGTTGTGGAAAATATAGTGAGTCGCTGCCTGCAAAGACACAACT [AAAAT]	0.461 ± 0.12
GAGACCGCAACTGAAAAGTTGTGGTAAAAATAGTGAGTCGCTGCCTGCAAAGACACAACT [TAAAA]	0.145 ± 0.025

Variant	ligation selection enrichment
GAGACCGCAACTGAAAAGTTGTGGTAAACATAGTGAGTCGCTGCCTGCAAAGACACAACT [TAAAC]	0.176 ± 0.054
GAGACCGCAACTGAAAAGTTGTGGTAAATATAGTGAGTCGCTGCCTGCAAAGACACAACT [TAAAT]	0.784 ± 0.063
GAGACCGCAACTGAAAAGTTGTGGTAAAGATAGTGAGTCGCTGCCTGCAAAGACACAACT [TAAAG]	0.553 ± 0.13
GAGACCGCAACTGAAAAGTTGTGGCAACTATAGTGAGTCGCTGCCTGCAAAGACACAACT [CAACT]	0.615 ± 0.11
GAGACCGCAACTGAAAAGTTGTGGCAACGATAGTGAGTCGCTGCCTGCAAAGACACAACT [CAACG]	0.449 ± 0.066
GAGACCGCAACTGAAAAGTTGTGGCAACCATAGTGAGTCGCTGCCTGCAAAGACACAACT [CAACC]	0.126 ± 0.0056
GAGACCGCAACTGAAAAGTTGTGGCAACAATAGTGAGTCGCTGCCTGCAAAGACACAACT [CAACA]	0.1345 ± 0.00036
GAGACCGCAACTGAAAAGTTGTGGTAAGGATAGTGAGTCGCTGCCTGCAAAGACACAACT [TAAGG]	0.733 ± 0.15
GAGACCGCAACTGAAAAGTTGTGGTAAGAATAGTGAGTCGCTGCCTGCAAAGACACAACT [TAAGA]	0.977 ± 0.16
GAGACCGCAACTGAAAAGTTGTGGTAAGCATAGTGAGTCGCTGCCTGCAAAGACACAACT [TAAGC]	0.165 ± 0.016
GAGACCGCAACTGAAAAGTTGTGGTAAGTATAGTGAGTCGCTGCCTGCAAAGACACAACT [TAAGT]	0.0779 ± 0.028
GAGACCGCAACTGAAAAGTTGTGGAAAGAATAGTGAGTCGCTGCCTGCAAAGACACAACT [AAAGA]	0.256 ± 0.0097
GAGACCGCAACTGAAAAGTTGTGGAAAGCATAGTGAGTCGCTGCCTGCAAAGACACAACT [AAAGC]	0.199 ± 0.038
GAGACCGCAACTGAAAAGTTGTGGAAAGGATAGTGAGTCGCTGCCTGCAAAGACACAACT [AAAGG]	0.44 ± 0.026
GAGACCGCAACTGAAAAGTTGTGGGAACCATAGTGAGTCGCTGCCTGCAAAGACACAACT [GAACC]	0.225 ± 0.032
GAGACCGCAACTGAAAAGTTGTGGGAACAATAGTGAGTCGCTGCCTGCAAAGACACAACT [GAACA]	0.191 ± 0.024
GAGACCGCAACTGAAAAGTTGTGGGAACTATAGTGAGTCGCTGCCTGCAAAGACACAACT [GAACT]	0.882 ± 0.31
GAGACCGCAACTGAAAAGTTGTGGGAACGATAGTGAGTCGCTGCCTGCAAAGACACAACT [GAACG]	0.626 ± 0.017
GAGACCGCAACTGAAAAGTTGTGGGAAACATAGTGAGTCGCTGCCTGCAAAGACACAACT [GAAAC]	0.146 ± 0.044
GAGACCGCAACTGAAAAGTTGTGGGAAATATAGTGAGTCGCTGCCTGCAAAGACACAACT [GAAAT]	0.55 ± 0.2
GAGACCGCAACTGAAAAGTTGTGGGAAAGATAGTGAGTCGCTGCCTGCAAAGACACAACT [GAAAG]	0.328 ± 0.021
GAGACCGCAACTGAAAAGTTGTGGGAAAAATAGTGAGTCGCTGCCTGCAAAGACACAACT [GAAAA]	0.135 ± 0.02
